Consider 4 substances from PMC10806181.

Like-named read-outs stand apart in the source and are kept apart here.

Assay [1] deals with Sho-Stl, enzymatically biotinylated on a C-terminal Avi-tag (Staphylococcus hominis). The assay can be described thus: BLI. (In BLI a coated tip is dipped into the sample, and binding shifts an interference pattern.)
The target in assay [2] is human dUTPase, enzymatically biotinylated on an N-terminal Avi-tag (human). The assay can be described thus: BLI.
Assay [3] has as its target Stl master repressor of the Staphylococcus aureus SaPIbov1 pathogenicity island (Staphylococcus aureus (SaPIbov1)). The assay can be described thus: BLI; dimer to monomers; KDIM estimated by probing dimerization constants until the ka values of the two BLI set-ups (Stl or human dUTPase on the sensor) were close to equal.
Assay [4] has the same target. The assay can be described thus: BLI + other: steady state dUTPase activity assay; dimer to monomers; rough estimate of KDIM from the BLI KD and the remaining activity of 50 nM human dUTPase at 200 and 300 nM Stl, assuming no competition of substrate binding.
The target of assay [5] is Mycobacterium tuberculosis dUTPase, enzymatically biotinylated on an N-terminal Avi-tag (Mycobacterium tuberculosis) (UniProt P9WNS5). The assay can be described thus: BLI.
For assay [6], the target named is Stl repressor of the Staphylococcus hominis ShoCI794_SEPI pathogenicity island (Staphylococcus hominis). The assay can be described thus: SEC; gelfiltration of Sho-Stl (Fig. S1). For orientation: SEC sorts molecules by how far they enter the pores of the column.
Assay [7] shares this target. The assay can be described thus: cross-linking; chemical crosslinking of Sho-Stl in solution (Fig. S1).
For assay [8] the target is unchanged. The assay can be described thus: BLI + other: steady state dUTPase activity assay; dimer to monomers; rough estimate of KDIM from the BLI KD and the remaining activity of 50 nM human dUTPase at 200 and 300 nM Stl, assuming no competition of substrate binding.
Assay [9] concerns the target Sa-Stl, enzymatically biotinylated on a C-terminal Avi-tag (Staphylococcus aureus (SaPIbov1)). The assay can be described thus: BLI.
Assay [10] deals with Sho-Stl-NDY bound to the streptavidin sensor (Staphylococcus hominis). The assay can be described thus: BLI.
In assay [11] the target is Sho-Stl, enzymatically biotinylated on a C-terminal Avi-tag (Staphylococcus hominis). The assay can be described thus: BLI. This is another data set of the same source.

In [1], “Mycobacterium tuberculosis dUTPase (from UniProt P9WNS5 1-154) (enzyme)” had a Kd of 0.013 nM, a koff of 2.9e-07 s⁻¹ and a kon of 22000 M⁻¹ s⁻¹.

Consider “Stl master repressor of the Staphylococcus aureus SaPIbov1 pathogenicity island (natural protein)”, for which, in assay [2], the Kd is 9.75 nM, the koff came to 0.00065 s⁻¹ and the kon was 67000 M⁻¹ s⁻¹. Further, the Kd in assay [3] was 0.12 nM. The Kd in assay [4] is 0.001 nM.

In the assay with human dUTPase (human), “Stl repressor of the Staphylococcus hominis ShoCI794_SEPI pathogenicity island (natural protein)” displayed a steady state dUTPase enzyme activity of 50 nM human dUTPase at 200 nM and 300 nM Sho-Stl (remaining activity); Sho-Stl does not inhibit the human dUTPase (% remaining activity) of 100. In [5], the Kd is 35 nM, the koff was found to be 0.00041 s⁻¹ and the kon amounted to 12000 M⁻¹ s⁻¹. In assay [6], this substance registered a stoichiometry N of 2. For the same substance, in [7], the stoichiometry N amounted to 2. Besides, in [8], the Kd is 0.001 nM.

Regarding human dUTPase (enzyme), the dissociation constant Kd in [9] worked out at 0.18 nM; in [1], 4.54 nM; in [10], 7.62 nM. In addition, the koff in assay [9] is 0.00027 s⁻¹; in assay [1] it was 0.00023 s⁻¹; in assay [10], 0.00024 s⁻¹; in [11], 0.00025 s⁻¹. In addition, the values for the kon in [9], in [1] and in [10] were 1.5e+06 M⁻¹ s⁻¹, 52000 M⁻¹ s⁻¹ and 31000 M⁻¹ s⁻¹, respectively.

Broadly, the Kd is the free concentration of one partner at which half of the binding sites on the other are occupied at equilibrium, for simple one-to-one binding. Broadly, the koff is a measure of how fast the partners let go of each other. A low value points to slow dissociation. A word on the kon: it is the rate constant with which the complex forms. Usually stoichiometry N stands for a count of units in the complex or per binding partner.
